The results in this text go back to publication PMC4550792.

The target of one assay is hLHR-Rluc8 (human) (UniProt P22888).
The target in assay [1] is human luteinizing hormone receptor (wildtype) (human) (UniProt P22888).
Another assay has as its target Gαs-Rluc8 (UniProt P63092). The assay can be described thus: FRET or BRET; BRET in live HEK 293 cells transiently co-expressing Gαs-Rluc8 with Venus-Gγ2 or Venus-Gβ1 in the presence of hFSHR or hLHR; read every 0.5 s before and after injection of 10 nM hFSH or hCG; 96-well format.
Sequence of UniProt P63092 (P63092 whole entry): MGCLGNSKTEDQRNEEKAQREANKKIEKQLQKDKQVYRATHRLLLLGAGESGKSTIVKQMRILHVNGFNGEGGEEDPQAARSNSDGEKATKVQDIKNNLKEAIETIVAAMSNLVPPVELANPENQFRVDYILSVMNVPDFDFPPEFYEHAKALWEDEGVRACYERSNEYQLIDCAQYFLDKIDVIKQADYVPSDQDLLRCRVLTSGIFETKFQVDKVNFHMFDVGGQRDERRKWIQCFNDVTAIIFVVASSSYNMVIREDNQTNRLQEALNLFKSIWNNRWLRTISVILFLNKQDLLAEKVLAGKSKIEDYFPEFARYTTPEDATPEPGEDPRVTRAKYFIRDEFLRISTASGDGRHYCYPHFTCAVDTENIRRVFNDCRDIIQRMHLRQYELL

Sequence of Venus-Gγ2 (P59768 whole entry): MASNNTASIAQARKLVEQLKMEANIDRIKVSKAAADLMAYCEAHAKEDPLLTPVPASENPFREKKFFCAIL

Regarding “human chorionic gonadotropin (from UniProt P01215 25-116; P0DN86 21-165) (ligand)”, the receptor internalization, decrease of BRET between hLHR-Rluc8 and the plasma membrane marker Venus-KRas in HEK 293 cells; EC50 of hCG with hLHR-Rluc8 (human) turned out to be 4.9 nM. In assay [1], this substance displayed a cAMP accumulation, HTRF assay in HEK 293 cells expressing hLHR; EC50 of hCG of 0.0019 nM and a cAMP production, BRET sensor CAMYEL in HEK 293 cells expressing hLHR; EC50 of hCG of 0.0035 nM.

In the assay with FSHR/AVPR2-CT chimera, “β-arrestin 2-TEV fusion protein (from UniProt P32121 1-409) (natural protein)” gave a TANGO assay (tTA-dependent firefly luciferase reporter in HTLA cells, 14–20 h with increasing hFSH); EC50 of hFSH of 5.7 nM.

Consider “Venus-Gγ2 (from UniProt P59768 1-71) (natural protein)”, for which the t1/2 of the hFSH-induced BRET decrease (with hFSHR) with Gαs-Rluc8 stood at 16.8 s.
